Reference: paper PMC13127578, “Mavacamten inhibits myosin activity by stabilizing the myosin interacting-heads motif and stalling motor force generation” (Science Advances, 2026)

How the values were obtained:
[1] = target: T1, single-headed human beta-cardiac myosin S1 (cS1), MYH7 residues 1 to 834 fused to GFP and FLAG (human, UniProt P12883 1-834); test: cross-linking; quantitative XL-MS with DSBU (600 μM, 20 min, 25°C) on 4 μM purified cS1 with bound light chains, 10 mM Mops pH 7.3, 50 mM KCl, 1 mM ATP, with 50 μM mavacamten or DMSO; settings: both partners purified
T1 construct: beta-cardiac myosin heavy chain (MYH7), human, residues 1 to 834, followed by a short linker, a GFP domain and a FLAG tag; also called cS1gfp

[2] = target: the molecule itself; test: cryo-EM structure; IHM_(mava): 2 μM cHMM with 1 mM ATP, 50 μM mavacamten (5% DMSO), cross-linked with 1 mM BS3, 50 mM KCl, 10 mM Mops pH 7; Lacey continuous carbon grid; ADP.Pi state; 3.7 Å

B1: human MYL3 (vLC1), ventricular essential light chain (natural protein)
chain: not shown
notes: myosin essential light chain MYL3 (vLC1), human; also called ELC
**Q.** Does B1 bind [1]?
**A.** binds

B2: human MYL2 (vLC2), ventricular regulatory light chain (natural protein, UniProt P10916 1-166, looked up)
chain: MAPKKAKKRAGGANSNVFSMFEQTQIQEFKEAFTIMDQNRDGFIDKNDLRDTFAALGRVNVKNEEIDEMIKEAPGPINFTVFLTMFGEKLKGADPEETILNAFKVFDPEGKGVLKADYVREMLTTQAERFSKEEVDQMFAAFPPDVTGNLDYKNLVHIITHGEEKD
notes: myosin regulatory light chain MYL2 (vLC2), human; also called RLC
**Q.** Does B2 bind [1]?
**A.** binds

B3: human beta-cardiac heavy meromyosin (β-cHMM) heavy chain, MYH7 residues 1 to 1137 (domain or fragment, UniProt P12883 1-1137, looked up)
chain: MGDSEMAVFGAAAPYLRKSEKERLEAQTRPFDLKKDVFVPDDKQEFVKAKIVSREGGKVTAETEYGKTVTVKEDQVMQQNPPKFDKIEDMAMLTFLHEPAVLYNLKDRYGSWMIYTYSGLFCVTVNPYKWLPVYTPEVVAAYRGKKRSEAPPHIFSISDNAYQYMLTDRENQSILITGESGAGKTVNTKRVIQYFAVIAAIGDRSKKDQSPGKGTLEDQIIQANPALEAFGNAKTVRNDNSSRFGKFIRIHFGATGKLASADIETYLLEKSRVIFQLKAERDYHIFYQILSNKKPELLDMLLITNNPYDYAFISQGETTVASIDDAEELMATDNAFDVLGFTSEEKNSMYKLTGAIMHFGNMKFKLKQREEQAEPDGTEEADKSAYLMGLNSADLLKGLCHPRVKVGNEYVTKGQNVQQVIYATGALAKAVYERMFNWMVTRINATLETKQPRQYFIGVLDIAGFEIFDFNSFEQLCINFTNEKLQQFFNHHMFVLEQEEYKKEGIEWTFIDFGMDLQACIDLIEKPMGIMSILEEECMFPKATDMTFKAKLFDNHLGKSANFQKPRNIKGKPEAHFSLIHYAGIVDYNIIGWLQKNKDPLNETVVGLYQKSSLKLLSTLFANYAGADAPIEKGKGKAKKGSSFQTVSALHRENLNKLMTNLRSTHPHFVRCIIPNETKSPGVMDNPLVMHQLRCNGVLEGIRICRKGFPNRILYGDFRQRYRILNPAAIPEGQFIDSRKGAEKLLSSLDIDHNQYKFGHTKVFFKAGLLGLLEEMRDERLSRIITRIQAQSRGVLARMEYKKLLERRDSLLVIQWNIRAFMGVKNWPWMKLYFKIKPLLKSAEREKEMASMKEEFTRLKEALEKSEARRKELEEKMVSLLQEKNDLQLQVQAEQDNLADAEERCDQLIKNKIQLEAKVKEMNERLEDEEEMNAELTAKKRKLEDECSELKRDIDDLELTLAKVEKEKHATENKVKNLTEEMAGLDEIIAKLTKEKKALQEAHQQALDDLQAEEDKVNTLTKAKVKLEQQVDDLEGSLEQEKKVRMDLERAKRKLEGDLKLTQESIMDLENDKQQLDERLKKKDFELNALNARIEDEQALGSQLQKKLKELQARIEELEEELEAERTARAKVEKLRS
notes: FLAG tag at 1138 to 1146; Two heavy chains form the two-headed cHMM; in the sample each carries a mouse ELC and RLC; For cryo-EM and negative stain the sample was cross-linked with BS3 in the presence of ATP; also called βCM; beta-cardiac myosin
**Q.** Does B3 bind [2]?
**A.** binds
